No end group written: not given here. FAM = 5,6-carboxyfluorescein
Experiments:
Assay in all cases: fluorescence polarisation
[1] = target: Trf4 NIM peptide (S. cerevisiae)
[2] = target: T1, Nrd1 CID L20D (S. cerevisiae, UniProt P53617 1-153, L20D)
T1 sequence: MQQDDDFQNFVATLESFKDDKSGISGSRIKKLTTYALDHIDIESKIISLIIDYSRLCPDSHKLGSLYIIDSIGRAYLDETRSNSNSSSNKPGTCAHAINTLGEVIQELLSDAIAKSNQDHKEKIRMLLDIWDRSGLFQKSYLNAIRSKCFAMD

[3] = target: T2, Nrd1 CID S25D (S. cerevisiae, UniProt P53617 1-153, S25D)
T2 sequence: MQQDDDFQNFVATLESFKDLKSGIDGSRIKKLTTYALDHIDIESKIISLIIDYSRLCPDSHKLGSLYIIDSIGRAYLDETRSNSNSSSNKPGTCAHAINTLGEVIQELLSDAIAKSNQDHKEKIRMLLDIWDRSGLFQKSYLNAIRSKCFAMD

[4] = target: T3, Nrd1 CID (S. cerevisiae, UniProt P53617 1-153)
T3 sequence: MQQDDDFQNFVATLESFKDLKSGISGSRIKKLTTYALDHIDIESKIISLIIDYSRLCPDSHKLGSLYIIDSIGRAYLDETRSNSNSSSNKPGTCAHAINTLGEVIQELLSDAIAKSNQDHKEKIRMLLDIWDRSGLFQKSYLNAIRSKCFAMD

[5] = target: T4, Nrd1 CID K21D (S. cerevisiae, UniProt P53617 1-153, K21D)
T4 sequence: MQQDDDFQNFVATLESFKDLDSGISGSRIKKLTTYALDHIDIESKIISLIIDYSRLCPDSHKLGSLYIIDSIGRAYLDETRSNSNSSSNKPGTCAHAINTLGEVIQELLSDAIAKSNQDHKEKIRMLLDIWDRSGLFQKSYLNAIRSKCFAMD

[6] = target: T5, Nrd1 CID R28D (S. cerevisiae, UniProt P53617 1-153, R28D)
T5 sequence: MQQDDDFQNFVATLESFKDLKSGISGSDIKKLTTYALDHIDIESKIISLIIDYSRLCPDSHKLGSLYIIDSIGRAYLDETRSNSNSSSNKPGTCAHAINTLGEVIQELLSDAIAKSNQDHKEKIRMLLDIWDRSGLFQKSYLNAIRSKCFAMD

Binder | Kd [1] [nM] | binding result [2] | binding result [3] | Kd [4] [nM] | binding result [5] | binding result [6]
Nrd1 CID (domain or fragment) MQQDDDFQNFVATLESFKDLKSGISGSRIKKLTTYALDHIDIESKIISLIIDYSRLCPDSHKLGSLYIIDSIGRAYLDETRSNSNSSSNKPGTCAHAINTLGEVIQELLSDAIAKSNQDHKEKIRMLLDIWDRSGLFQKSYLNAIRSKCFAMD | 900 |  |  |  |  | 
{FAM}-DDDEDDYTPSIS [Sen1 NIM peptide] |  | binds | binds | 1200 ± 20 | binds | binds

From paper doi:10.1101/433045 (bioRxiv, 2020)
